We go through five molecules from patent US20230340128A1 (Xencor, published 2023).

Assay [1] addresses T1, human CD28 (human, UniProt P10747 19-152, limits assumed).
T1 construct: also called Cluster of Differentiation 28; Tp44
In words: method not stated; Monovalent CD28 KD, table headed 1A7[CD28] H1_L1.71 (aka 180 nM).

For assay [2], the target named is T1, human CD28. The assay is described as follows: method not stated; Monovalent CD28 KD, table headed 1A7[CD28] H1.14_L1.71 (aka 37 nM).

B1: XENP39554 (bispecific antibody)
heavy: QVQLVQSGAEVKKPGASVKVSCKASGYTFTSYWMHWVRQAPGQGLEWMGMIHPNSDNTIYYEKFQGRVTMTVDKSISTAYMELSRLRSDDTAVYYCAIIITPVVPKFDYWGQGTLVTVSSASTKGPSVFPLAPSSKSTSGGTAALGCLVKDYFPEPVTVSWNSGALTSGVHTFPAVLQSSGLYSLSSVVTVPSSSLGTQTYICNVNHKPSDTKVDKKVEPKSCDKTHTCPPCPAPPVAGPSVFLFPPKPKDTLMISRTPEVTCVVVDVKHEDPEVKFNWYVDGVEVHNAKTKPREEEYNSTYRVVSVLTVLHQDWLNGKEYKCKVSNKALPAPIEKTISKAKGQPREPQVYTLPPSREEMTKNQVSLTCDVSGFYPSDIAVEWESDGQPENNYKTTPPVLDSDGSFFLYSKLTVDKSRWEQGDVFSCSVLHEALHSHYTQKSLSLSPGK
scFv-Fc: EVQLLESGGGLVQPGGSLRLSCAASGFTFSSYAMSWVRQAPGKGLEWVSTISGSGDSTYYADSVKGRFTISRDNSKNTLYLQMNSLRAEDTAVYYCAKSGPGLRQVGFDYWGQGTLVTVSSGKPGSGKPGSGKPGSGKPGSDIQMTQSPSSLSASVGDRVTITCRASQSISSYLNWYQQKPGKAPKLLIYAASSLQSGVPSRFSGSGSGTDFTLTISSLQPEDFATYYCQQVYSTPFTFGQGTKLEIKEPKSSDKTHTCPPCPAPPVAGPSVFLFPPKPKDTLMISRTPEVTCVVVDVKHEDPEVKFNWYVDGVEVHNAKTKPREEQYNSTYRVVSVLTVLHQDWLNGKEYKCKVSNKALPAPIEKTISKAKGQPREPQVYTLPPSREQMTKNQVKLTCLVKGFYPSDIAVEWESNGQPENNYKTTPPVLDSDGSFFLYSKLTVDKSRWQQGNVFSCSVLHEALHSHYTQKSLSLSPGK
light: DIVMTQSPDSLAVSLGERATINCKASHDVGTSVAWYQQKPGQSPKLLIYWASTRHTGVPDRFTGSGSGTDFTLTISSLQAEDVAVYFCQQYSSYPLTFGAGTKLEIKRTVAAPSVFIFPPSDEQLKSGTASVVCLLNNFYPREAKVQWKVDNALQSGNSQESVTEQDSKDSTYSLSSTLTLSKADYEKHKVYACEVTHQGLSSPVTKSFNRGEC
notes: also called H1_L1.71
One may read the Kd as the free concentration of one partner at which half of the binding sites on the other are occupied at equilibrium, for simple one-to-one binding. A high value points to weaker binding. Turning to B1, the equilibrium dissociation constant (Kd) in assay [1] stood at 200 nM.

B2: XENP44469 (bispecific antibody)
chain 1: B1 heavy
chain 2: not shown
chain 3: B1 light
notes: also called 2+1 Fab2-scFv-Fc MSLN x CD28 bsAb
In assay [2], B2 registered a Kd of 580 nM.

B3: XENP44475 (bispecific antibody)
chain 1: QVQLVQSGAEVKKPGASVKVSCKASGYTFTSYWMHWVRQAPGQGLEWMGMIHPNSDNTIYYEKFQGRVTMTVDKSISTAYMELSRLRSDDTAVYYCAIIITPVVPKFDYWGQGTLVTVSSASTKGPSVFPLAPSSKSTSGGTAALGCLVKDYFPEPVTVSWNSGALTSGVHTFPAVLQSSGLYSLSSVVTVPSSSLGTQTYICNVNHKPSDTKVDKKVEPKSCGGGGSGGGGSQVQLVQSGAEVKKPGASVKVSCKASGYTFTSYWMHWVRQAPGQGLEWMGMIHPNSDNTIYYEKFQGRVTMTVDKSISTAYMELSRLRSDDTAVYYCAIIITPVVPKFDYWGQGTLVTVSSASTKGPSVFPLAPSSKSTSGGTAALGCLVKDYFPEPVTVSWNSGALTSGVHTFPAVLQSSGLYSLSSVVTVPSSSLGTQTYICNVNHKPSDTKVDKKVEPKSCDKTHTCPPCPAPPVAGPSVFLFPPKPKDTLMISRTPEVTCVVVDVKHEDPEVKFNWYVDGVEVHNAKTKPREEEYNSTYRVVSVLTVLHQDWLNGKEYKCKVSNKALPAPIEKTISKAKGQPREPQVYTLPPSREEMTKNQVSLTCDVSGFYPSDIAVEWESDGQPENNYKTTPPVLDSDGSFFLYSKLTVDKSRWEQGDVFSCSVLHEALHSHYTQKSLSLSPGK
chain 2: not shown
chain 3: B1 light
notes: also called 2+1 Fab2-Fc x scFv-Fc MSLN x CD28 bsAb
Consider B3, for which the Kd in assay [2] is 740 nM.

B4: XENP39533 (bispecific antibody)
heavy 1: B1 heavy
heavy 2: not shown
light 1: B1 light
light 2: B1 light
notes: also called H1.14_L1.71
B4 showed an equilibrium dissociation constant (Kd) in assay [2] of 660 nM.

B5: XENP44474 (bispecific antibody)
chain 1: B3 chain 1
chain 2: not shown
chain 3: B1 light
notes: as for B3
In turn, B5 showed a Kd in assay [1] of 4900 nM.
